Test in all cases: co-IP
Experiment [1] deals with mGFP-PICK1 5K-E (mouse) (UniProt Q62083).
Experiment [2] deals with mCherry-PICK1 WT (mouse) (UniProt Q62083).
Experiment [3] has as its target mGFP-KIBRA ΔC2 (mouse) (UniProt Q5SXA9).
Experiment [4] deals with mGFP-KIBRA ΔCCL (mouse) (UniProt Q5SXA9).
The target of experiment [5] is mGFP-KIBRA ΔCt (mouse) (UniProt Q5SXA9).
The target in experiment [6] is mGFP-KIBRA ΔαBR (mouse) (UniProt Q5SXA9).
For experiment [7], the target named is mCherry-KIBRA WT (mouse) (UniProt Q5SXA9).
mCherry-KIBRA WT (mouse), sequence (Q5SXA9 whole entry): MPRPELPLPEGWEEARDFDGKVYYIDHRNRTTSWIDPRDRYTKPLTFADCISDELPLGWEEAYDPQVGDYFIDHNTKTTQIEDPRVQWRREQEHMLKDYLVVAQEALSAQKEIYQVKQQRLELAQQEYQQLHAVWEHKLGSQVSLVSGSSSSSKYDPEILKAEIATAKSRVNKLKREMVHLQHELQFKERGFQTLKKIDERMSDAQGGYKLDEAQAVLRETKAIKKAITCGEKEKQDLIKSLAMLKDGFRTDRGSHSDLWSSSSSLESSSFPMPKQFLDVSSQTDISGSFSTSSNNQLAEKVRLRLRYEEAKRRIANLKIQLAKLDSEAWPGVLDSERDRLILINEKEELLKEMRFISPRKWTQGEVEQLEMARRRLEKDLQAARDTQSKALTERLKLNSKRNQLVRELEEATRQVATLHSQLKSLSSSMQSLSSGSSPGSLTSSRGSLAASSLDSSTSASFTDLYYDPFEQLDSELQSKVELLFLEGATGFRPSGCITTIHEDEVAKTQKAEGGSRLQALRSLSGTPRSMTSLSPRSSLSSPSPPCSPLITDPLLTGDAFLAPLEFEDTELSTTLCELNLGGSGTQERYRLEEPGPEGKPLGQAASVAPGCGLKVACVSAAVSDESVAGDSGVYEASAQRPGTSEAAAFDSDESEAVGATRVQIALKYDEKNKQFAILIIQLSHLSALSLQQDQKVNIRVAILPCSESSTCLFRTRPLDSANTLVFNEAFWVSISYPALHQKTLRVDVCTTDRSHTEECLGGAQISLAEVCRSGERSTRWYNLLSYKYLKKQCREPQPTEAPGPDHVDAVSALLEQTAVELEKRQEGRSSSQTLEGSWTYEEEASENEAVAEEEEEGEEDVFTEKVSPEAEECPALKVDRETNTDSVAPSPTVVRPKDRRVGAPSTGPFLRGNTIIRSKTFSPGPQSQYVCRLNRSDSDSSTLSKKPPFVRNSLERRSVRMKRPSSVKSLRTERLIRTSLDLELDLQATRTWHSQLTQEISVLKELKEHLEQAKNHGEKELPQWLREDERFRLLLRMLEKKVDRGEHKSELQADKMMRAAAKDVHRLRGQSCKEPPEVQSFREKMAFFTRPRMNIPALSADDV

mCherry-PICK1 WT (mouse), sequence (Q62083 whole entry): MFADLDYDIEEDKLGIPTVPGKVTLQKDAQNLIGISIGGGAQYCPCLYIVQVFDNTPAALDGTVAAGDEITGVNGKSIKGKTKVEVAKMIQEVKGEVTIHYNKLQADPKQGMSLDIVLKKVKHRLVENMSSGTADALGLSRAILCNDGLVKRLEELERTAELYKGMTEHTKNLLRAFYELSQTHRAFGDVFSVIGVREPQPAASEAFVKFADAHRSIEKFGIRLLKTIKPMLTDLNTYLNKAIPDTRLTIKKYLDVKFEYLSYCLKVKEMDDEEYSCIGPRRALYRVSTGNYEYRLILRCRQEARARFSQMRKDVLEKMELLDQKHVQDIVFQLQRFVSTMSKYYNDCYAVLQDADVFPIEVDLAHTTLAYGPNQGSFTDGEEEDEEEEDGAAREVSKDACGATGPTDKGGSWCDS
mGFP-PICK1 5K-E (mouse), sequence (Q62083 whole entry): as above
mGFP-KIBRA ΔCCL, sequence (Q5SXA9 whole entry, stated change not applied): as the sequence (Q5SXA9 whole entry) above
mGFP-KIBRA ΔαBR, sequence (Q5SXA9 whole entry, stated change not applied): as the sequence (Q5SXA9 whole entry) above
mGFP-KIBRA ΔC2, sequence (Q5SXA9 whole entry, stated change not applied): as the sequence (Q5SXA9 whole entry) above
mGFP-KIBRA ΔCt, sequence (Q5SXA9 whole entry, stated change not applied): as the sequence (Q5SXA9 whole entry) above
mGFP-PICK1 BAR (domain or fragment), sequence (Q62083 whole entry, the tested form may be a part): as the sequence (Q62083 whole entry) above
mGFP-PICK1 KD-AA, sequence (Q62083 whole entry): as above
mCherry-KIBRA WT, sequence (Q5SXA9 whole entry): as the sequence (Q5SXA9 whole entry) above
mGFP-KIBRA ΔWW, sequence (Q5SXA9 whole entry, stated change not applied): as the sequence (Q5SXA9 whole entry) above
Myc-GluA2, sequence (P19491 22-883): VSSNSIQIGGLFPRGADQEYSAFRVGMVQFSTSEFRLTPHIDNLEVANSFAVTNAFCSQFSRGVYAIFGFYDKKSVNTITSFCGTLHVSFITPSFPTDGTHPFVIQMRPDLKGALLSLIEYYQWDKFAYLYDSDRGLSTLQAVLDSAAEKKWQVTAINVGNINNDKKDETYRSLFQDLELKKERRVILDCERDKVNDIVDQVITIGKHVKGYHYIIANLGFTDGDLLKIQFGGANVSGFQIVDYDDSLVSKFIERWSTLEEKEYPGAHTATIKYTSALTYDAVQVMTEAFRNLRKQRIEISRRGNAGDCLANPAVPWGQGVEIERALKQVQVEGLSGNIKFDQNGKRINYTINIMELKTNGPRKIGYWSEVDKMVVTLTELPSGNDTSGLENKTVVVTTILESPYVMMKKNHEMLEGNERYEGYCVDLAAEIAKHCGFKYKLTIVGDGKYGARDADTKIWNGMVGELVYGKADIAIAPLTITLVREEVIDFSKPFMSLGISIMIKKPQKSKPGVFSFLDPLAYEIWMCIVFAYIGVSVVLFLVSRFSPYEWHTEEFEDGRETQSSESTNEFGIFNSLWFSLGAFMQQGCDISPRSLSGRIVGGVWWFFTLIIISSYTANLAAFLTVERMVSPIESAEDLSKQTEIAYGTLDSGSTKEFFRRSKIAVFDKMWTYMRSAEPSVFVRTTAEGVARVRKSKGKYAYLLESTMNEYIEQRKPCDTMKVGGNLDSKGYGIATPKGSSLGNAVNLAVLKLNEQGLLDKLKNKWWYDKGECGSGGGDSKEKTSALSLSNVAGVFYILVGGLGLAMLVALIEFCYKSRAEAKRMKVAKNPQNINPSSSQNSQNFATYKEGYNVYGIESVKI

In the case of “Myc-GluA2 (from UniProt P19491 22-883) (receptor)”, the GluA2 signal with PICK1 5K-E normalized to +PICK1 WT in experiment [1] stood at 0.27. The substance “mCherry-KIBRA WT (from UniProt Q5SXA9 1-1104) (natural protein)” showed a KIBRA signal with PICK1 5K-E normalized to +PICK1 WT in experiment [1] of 0.63. For “mGFP-KIBRA ΔC2 (from UniProt Q5SXA9 1-1104) (natural protein)”, the co-precipitated KIBRA normalized to WT sample from the same blot in experiment [2] is 1.08. The same substance had a co-precipitated mGFP-KIBRA normalized to WT sample from the same blot in experiment [3] of 1.36. In the case of “mGFP-KIBRA ΔCCL (from UniProt Q5SXA9 1-1104) (natural protein)”, the co-precipitated mGFP-KIBRA normalized to WT sample from the same blot in experiment [4] is 1.6. This substance also had a co-precipitated KIBRA normalized to WT sample from the same blot in experiment [2] of 1.53. In turn, “mGFP-KIBRA ΔCt (from UniProt Q5SXA9 1-1104) (natural protein)” had a co-precipitated KIBRA normalized to WT sample from the same blot in experiment [2] of 5.79. In experiment [5], the co-precipitated mGFP-KIBRA normalized to WT sample from the same blot was 1.

“mGFP-KIBRA ΔWW (from UniProt Q5SXA9 1-1104) (natural protein)” yielded a co-precipitated KIBRA normalized to WT sample from the same blot in experiment [2] of 1.87. For “mGFP-KIBRA ΔαBR (from UniProt Q5SXA9 1-1104) (natural protein)”, in experiment [6], the co-precipitated mGFP-KIBRA normalized to WT sample from the same blot stood at 1.55. This substance had a co-precipitated KIBRA normalized to WT sample from the same blot in experiment [2] of 1.84. With mGFP-PICK1 BAR (domain or fragment), in experiment [7], the PICK1 pull down normalized to input and same-gel WT PICK1 is 2.06. In the case of “mGFP-PICK1 KD-AA (from UniProt Q62083 1-416) (natural protein)”, in experiment [7], the PICK1 pull down normalized to input and same-gel WT PICK1 amounted to 0.8.

(Values after article doi:10.1101/2024.03.12.584494.)
